Results published in patent US10829756B2, “Discovery of enzymes from the alpha-keto acid decarboxylase family” (Regents of the University of California, priority 2015, dated 2020).
Values joined by “and” are separate entries in the source; they are usually repeats but may differ in a detail not shown here. Equal entries are not always repeated.

B1: GEO175 L376T_T240S: engineered mutant of GEO 175 containing two amino acid changes (L376T, T240S), SEQ ID NO:19 (protein)
chain: MRTVRESALDVLRARGMTTVFGNPGSTELPMLKQFPDDFRYVLGLQEAVVVGMADGFALASGTTGLVNLHTGPGTGNAMGAILNARANRTPMVVTAGQQVRAMLTMEALLTNPQSTLLPQPAVKWAYEPPRAADVAPALARAVQVAETPPQGPVFVSLPMDDFDVVLGEDEDRAAQRAAARTVTHAAAPSAEVVRRLAARLSGARSAVLVAGNDVDASGAWDAVVELAERTGLPVWSAPSEGRVAFPKSHPQYRGMLPPAIAPLSRCLEGHDLVLVIGAPVFCYYPYVPGAHLPENTELVHLTRDADEAARAPVGDAVVADLALTVRALLAELPAREAAAPAARTARAESTAEVDGVLTPLAAMTAIAQGAPANTTWVNESPSNLGQFHDATRIDTPGSFLFTAGGGLGFGLAAAVGAQLGAPDRPVVCVIGDGSTHYAVQALWTAAAYKVPVTFVVLSNQRYAILQWFAQVEGAQGAPGLDIPGLDIAAVATGYGVRAHRATGFGELSKLVRESALQQDGPVLIDVPVTTELPTL
modifications: Synthetic mutant of GEO175
B2: KIVD_VLV: KIVD triple mutant G402V/M538L/F542V, SEQ ID NO:3 (protein)
chain: MYTVGDYLLDRLHELGIEEIFGVPGDYNLQFLDQIISRKDMKWVGNANELNASYMADGYARTKKAAAFLTTFGVGELSAVNGLAGSYAENLPVVEIVGSPTSKVQNEGKFVHHTLADGDFKHFMKMHEPVTAARTLLTAENATVEIDRVLSALLKERKPVYINLPVDVAAAKAEKPSLPLKKENSTSNTSDQEILNKIQESLKNAKKPIVITGHEIISFGLEKTVSQFISKTKLPITTLNFGKSSVDEALPSFLGIYNGKLSEPNLKEFVESADFILMLGVKLTDSSTGAFTHHLNENKMISLNIDEGKIFNESIQNFDFESLISSLLDLSEIEYKGKYIDKKQEDFVPSNALLSQDRLWQAVENLTQSNETIVAEQGTSFFGASSIFLKPKSHFIGQPLWVSIGYTFPAALGSQIADKESRHLLFIGDGSLQLTVQELGLAIREKINPICFIINNDGYTVEREIHGPNQSYNDIPMWNYSKLPESFGATEERVVSKIVRTENEFVSVMKEAQADPNRMYWIELILAKEDAPKVLKKLGKLVAEQNKS
modifications: Synthetic protein KIVD_VLV

Columns and labels:
[1] = In vitro steady-state kinetics of purified 2-ketoacid decarboxylases (ADH/NADH-coupled), C5 substrate; type: biochemical; conditions: relative to GEO 175
Procedure: (§1) For the native KIVD and KIVD_VLV mutant, 2 ml overnight cultures of XL1B cells were transformed with pQE9 containing N-terminal his-tagged KIVD enzymes and grown in Terrific Broth (BP biomedical, Cat#3046-042) with 50 μg/mL of carbenicillin. (Fisher scientific, Cat# BP2648-5) For the GEOs, 2 ml overnight cultures of BLR cells were transformed with pet29b+ plasmid containing N-terminal his-tagged GEOs, and grown in Terrific Broth with 50 μg/mL of kanamycin. (Fisher scientific, Cat# BP906-5) These cultures were diluted 1:1000 in 500 mL of Terrific Broth with 1 mM MgSO4, 1% glucose, and 50ug/mL of corresponding antibiotics, then grown at 37° C. for 24 hours. […] Protein concentrations were determined using a Synergy H1 spectrophotometer (Biotek) by measuring absorbance at 280 nm using their calculated extinction coefficients with ExPASy ProtParam Tool.^33 All other buffers and salts were purchased from Fisher Scientific unless otherwise specified.
(§2) The kcat and KM values of selective KIVD mutants were measured for the substrates: C3, C5, isoC5, and C8. […] Activity was measured at 0.005 mM to 10 mM substrates. […] Absorbance readings were taken every 1-minute at OD340 at 21° C. for 60 minutes using the Synergy H1. Kinetic parameters (kcat and KM) were determined by fitting initial velocity versus substrate concentration data to the Michaelis-Menten equation.

[2] = In vitro steady-state kinetics of purified 2-ketoacid decarboxylases (ADH/NADH-coupled), C8 substrate; type: biochemical; conditions: relative to GEO 175
Procedure: as §1, §2

[3] = test system: synthetic recursive+1 pathway; assay: In vivo alcohol production of the synthetic recursive+1 pathway (fermentation, GC-FID); type: cell-based, E. coli
Procedure: The measured specificity and activity for each enzyme was used to select two candidates for further characterization of their ability to modulate alcohol production in vivo. The two enzymes with the highest activity and specificity (FIG. 4), KIVD_VLV and GEO 175, were tested for their ability to reprogram the synthetic recursive+1 pathway to produce long-chain alcohol products in vivo. The alcohol-producing biochemical pathway was adapted from a previous study used to synthesize alcohols of various lengths.^3,4 Starting from glucose, the aforementioned+1 pathway, involving LeuABCD, recursively elongates 2-ketoacids, starting with 2-ketobutyrate, into longer chained 2-ketoacids. These 2-ketoacids are then converted to aldehydes by ketoacid decarboxylases (native KIVD, KIVD_VLV, and GEO 175) and subsequently to alcohols by an alcohol dehydrogenase. Carbon flux through this alcohol synthesizing biochemical pathway is enhanced by overexpressing thrABC, ilvA, LeuABCD, and ADH6 on inducible plasmids transformed into E. coli.^3 The effects of overexpression were furthermore supported and maintained by knocking out the threonine exporter enzyme RhtA and the primary DNA recombination degradation enzyme RecA. The enzyme AdhE was also knocked out, which helps raise long chain alcohol production by eliminating a competing pathway where acetyl-CoA is directly converted to ethanol.^19
Genes were removed from the ATCC 98082 ΔrhtA strain genome using P1 transduction from the Keio collection as previously.^32 The aldehyde-alcohol dehydrogenase gene (adhE) was knocked out to eliminate ethanol production from acetyl-coA. In all strains, recA was knocked out to prevent recombination between the genome and plasmids, thereby stabilizing the transformants. Primers used to target recA for knockout were designed based on the Keio collection (Genobase, ecoli.aist-nara.ac.jp) and ordered from Integrated DNA Technologies.
For n-alcohol production, strains of ST128 were transformed with pZS_thrO, pZAlac_ilvABSleuA, and pZE_LeuA*BCDK*A6 containing various kivd mutations. Fermentation conditions were adapted from those in previous works,^3,4 with the following changes: 20 mL of medium was used, with 100 μg/mL ampicillin, […] kanamycin, and 100 μg/mL spectinomycin added. Cells were grown to an optical density at 600 nm of ˜0.6, followed by induction with 0.1 mM isopropyl-b-D-thiogalactoside (IPTG). After fermentation, cells were centrifuged for 15 minutes at 4000×g and 4° C. The supernatant was split into two fractions for analysis, 5 mL for short chain alcohols (ethanol, 1-propanol, and 1-butanol), and 15 mL for long chain alcohols (1-pentanol, 1-hexanol, 1-heptanol, and 1-octanol). Long chain alcohols were extracted from the 15 mL fraction by 3 mL n-hexane prior to analysis. GC-FID analysis was performed as previously described.^4

[4] = High-throughput pH-dependent colorimetric assay of KIVD mutant libraries in crude cell extracts; type: biochemical; conditions: combinatorial KIVD mutants
Procedure: Partially degenerate oligonucleotides were ordered from Integrated DNA Technologies (San Diego, Calif.) and were used to generate libraries of kivd mutants (with N-terminal his tags) by PCR. Library DNA was purified, inserted into the PCR-amplified pQE9 vector by isothermal Gibson assembly,^31 and transformed into XL1-Blue cells. Individual ampicillin-resistant colonies were picked and grown in 96-well blocks at 37° C. overnight. The number of colonies picked was three times the theoretical library size to ensure approximately 95% probability of all possible mutation combinations occurring. Glycerol was added to 25% (w/v) and libraries were stored at −80° C. until enzyme activity and specificity were assayed. KIVD mutant libraries were screened using a pH-monitored enzyme assay (method explained below) to measure the rate of H^+ consumption resulting from the decarboxylation of 2-ketoacids.
KIVD mutant libraries were grown overnight in culture blocks, diluted 1:100 into fresh media (Luria Broth), grown at 37° C. for 3 hours to OD600 ˜0.6, induced with 0.1 mM IPTG (GoldBio, Saint Louis, Mo.), and grown for 2 additional hours at 37° C. Cells from the well blocks were transferred to 96-well assay plates (Costar, Corning, N.Y.) and cell density was measured at 600 nm. […] Absorbance was measured at 615 nm in a spectrophotometer (TEK Powerwave XS, BioTek, Winooski, Vt.). […]

[5] = forty hours, microaerobic, defined media

Row | Molecule | effect on shorter chain substrates [1] | effect on catalytic efficiency on C8 [2] | drop of overall alcohol production from that obtained with KIVD [3] [fold] | heptanol share of alcohol production [3] [%] | hexanol share of alcohol production [3] [%] | major alcohol product [3] | pentanol share of alcohol production [3] [%] | 1-Ethanol production [3, 5] | 1-Heptanol production [3, 5] | 1-Hexanol production [3, 5] | 1-Octanol production [3, 5] | 1-Pentanol production [3, 5] | 1-Propanol production [3, 5] | long chain (≥C5) alcohols produced ([3]; sum of long chain alcohols) [mg/L] | specificity for C8 and activity in colorimetric screening [4]
1 | B1 | negligible effect | decrease catalytic efficiency on C8 |  |  |  |  |  |  |  |  |  |  |  |  | 
2 | B2 |  |  | ~10 | 37 | 47 | Hexanol (C6) | 16 | no ethanol or propanol production is observed | 269 mg/L and 269 ± 23 mg/L | 341 mg/L and 341 ± 63 mg/L | not observed | 118 mg/L and 118 ± 29 mg/L | no ethanol or propanol production is observed | 728 | highest specificity and activity
